± gives the standard deviation of the averaged measurements.
What was measured:
MCF7 = assay: percentage of EdU-negative (G0-arrested) nuclei per well, 72 h; higher = more G0 arrest; conditions: reference: sequence is the full UniProt precursor, the tested protein was the secreted form or ectodomain
hTERT-HMEC = assay: as above; conditions: reference: sequence is the full UniProt precursor, the tested protein was the secreted form or ectodomain
[1] = protein concentration 0.03125 µM
[2] = protein concentration 0.3125 µM
[3] = protein concentration 0.0147125 µM
[4] = protein concentration 0.147125 µM
[5] = protein concentration 0.0125 µM
[6] = protein concentration 0.0225 µM
[7] = protein concentration 0.0143975 µM
[8] = protein concentration 0.0290625 µM
[9] = protein concentration 0.143975 µM
[10] = protein concentration 0.290625 µM
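Further: secreted proteins added to cultured cells, EdU pulse at the end, nuclei found by Hoechst imaging, EdU status from nuclear versus surrounding ring intensity ratio, PBS as neutral control.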

## MDTIFLWSLLLLFFGSQASRCSAQKNTEFAVDLYQEVSLSHKDNIIFSPLGITLVLEMVQLGAKGKAQQQIRQTLKQQETSAGEEFFVLKSFFSAISEKKQEFTFNLANALYLQEGFTVKEQYLHGNKEFFQSAIKLVDFQDAKACAEMISTWVERKTDGKIKDMFSGEEFGPLTRLVLVNAIYFKGDWKQKFRKEDTQLINFTKKNGSTVKIPMMKALLRTKYGYFSESSLNYQVLELSYKGDEFSLIIILPAEGMDIEEVEKLITAQQILKWLSEMQEEEVEISLPRFKVEQKVDFKDVLYSLNITEIFSGGCDLSGITDSSEVYVSQVTQKVFFEINEDGSEAATSTGIHIPVIMSLAQSQFIANHPFLFIMKHNPTESILFMGRVTNPDTQEIKGRDLDSL
MCF7; [1]
  percentage of EdU-negative: 24 ± 0.53%
MCF7; [2]
  percentage of EdU-negative: 24.9 ± 1.8%
hTERT-HMEC; [1]
  percentage of EdU-negative: 4.81 ± 0.69%
hTERT-HMEC; [2]
  percentage of EdU-negative: 6.48 ± 0.78%

## MDTPRVLLSAVFLISFLWDLPGFQQASISSSSSSAELGSTKGMRSRKEGKMQRAPRDSDAGREGQEPQPRPQDEPRAQQPRAQEPPGRGPRVVPHEYMLSIYRTYSIAEKLGINASFFQSSKSANTITSFVDRGLDDLSHTPLRRQKYLFDVSMLSDKEELVGAELRLFRQAPSAPWGPPAGPLHVQLFPCLSPLLLDARTLDPQGAPPAGWEVFDVWQGLRHQPWKQLCLELRAAWGELDAGEAEARARGPQQPPPPDLRSLGFGRRVRPPQERALLVVFTRSQRKNLFAEMREQLGSAEAAGPGAGAEGSWPPPSGAPDARPWLPSPGRRRRRTAFASRHGKRHGKKSRLRCSKKPLHVNFKELGWDDWIIAPLEYEAYHCEGVCDFPLRSHLEPTNHAIIQTLMNSMDPGSTPPSCCVPTKLTPISILYIDAGNNVVYKQYEDMVVESCGCR [Q6KF10]
MCF7; [3]
  percentage of EdU-negative: 25.3 ± 1.3%
MCF7; [4]
  percentage of EdU-negative: 28.7 ± 2.5%
hTERT-HMEC; [3]
  percentage of EdU-negative: 4.28 ± 0.073%
hTERT-HMEC; [4]
  percentage of EdU-negative: 5.35 ± 0.57%

## MDTRNKAQLLVLLTLLSVLFSQTSAWPLYRAPSALRLGDRIPFEGANEPDQVSLKEDIDMLQNALAENDTPYYDVSRNARHADGVFTSDFSKLLGQLSAKKYLESLMGKRVSSNISEDPVPVKRHSDAVFTDNYTRLRKQMAVKKYLNSILNGKRSSEGESPDFPEELEK
MCF7; [5]
  percentage of EdU-negative: 27.7 ± 3.4%
MCF7; protein concentration 0.125 µM
  percentage of EdU-negative: 22.42 ± 0.17%
hTERT-HMEC; [5]
  percentage of EdU-negative: 5.76 ± 0.37%
hTERT-HMEC; protein concentration 0.125 µM
  percentage of EdU-negative: 5.43 ± 0.065%

## MDWSFFRVVAMLFIFLVVVEVNSEFRIQVRDYNTKNGTIKWHSIRRQKREWIKFAAACREGEDNSKRNPIAKIHSDCAANQQVTYRISGVGIDQPPYGIFVINQKTGEINITSIVDREVTPFFIIYCRALNSMGQDLERPLELRVRVLDINDNPPVFSMATFAGQIEENSNANTLVMILNATDADEPNNLNSKIAFKIIRQEPSDSPMFIINRNTGEIRTMNNFLDREQYGQYALAVRGSDRDGGADGMSAECECNIKILDVNDNIPYMEQSSYTIEIQENTLNSNLLEIRVIDLDEEFSANWMAVIFFISGNEGNWFEIEMNERTNVGILKVVKPLDYEAMQSLQLSIGVRNKAEFHHSIMSQYKLKASAISVTVLNVIEGPVFRPGSKTYVVTGNMGSNDKVGDFVATDLDTGRPSTTVRYVMGNNPADLLAVDSRTGKLTLKNKVTKEQYNMLGGKYQGTILSIDDNLQRTCTGTININIQSFGNDDRTNTEPNTKITTNTGRQESTSSTNYDTSTTSTDSSQVYSSEPGNGAKDLLSDNVHFGPAGIGLLIMGFLVLGLVPFLMICCDCGGAPRSAAGFEPVPECSDGAIHSWAVEGPQPEPRDITTVIPQIPPDNANIIECIDNSGVYTNEYGGREMQDLGGGERMTGFELTEGVKTSGMPEICQEYSGTLRRNSMRECREGGLNMNFMESYFCQKAYAYADEDEGRPSNDCLLIYDIEGVGSPAGSVGCCSFIGEDLDDSFLDTLGPKFKKLADISLGKESYPDLDPSWPPQSTEPVCLPQETEPVVSGHPPISPHFGTTTVISESTYPSGPGVLHPKPILDPLGYGNVTVTESYTTSDTLKPSVHVHDNRPASNVVVTERVVGPISGADLHGMLEMPDLRDGSNVIVTERVIAPSSSLPTSLTIHHPRESSNVVVTERVIQPTSGMIGSLSMHPELANAHNVIVTERVVSGAGVTGISGTTGISGGIGSSGLVGTSMGAGSGALSGAGISGGGIGLSSLGGTASIGHMRSSSDHHFNQTIGSASPSTARSRITKYSTVQYSK
MCF7; protein concentration 0.014 µM
  percentage of EdU-negative: 25.17 ± 0.14%
MCF7; protein concentration 0.14 µM
  percentage of EdU-negative: 28.1 ± 0.79%
hTERT-HMEC; protein concentration 0.014 µM
  percentage of EdU-negative: 5.37 ± 1.1%
hTERT-HMEC; protein concentration 0.14 µM
  percentage of EdU-negative: 5.1 ± 0.58%

## MDYPTLLLALLHVYRALCEEVLWHTSVPFAENMSLECVYPSMGILTQVEWFKIGTQQDSIAIFSPTHGMVIRKPYAERVYFLNSTMASNNMTLFFRNASEDDVGYYSCSLYTYPQGTWQKVIQVVQSDSFEAAVPSNSHIVSEPGKNVTLTCQPQMTWPVQAVRWEKIQPRQIDLLTYCNLVHGRNFTSKFPRQIVSNCSHGRWSVIVIPDVTVSDSGLYRCYLQASAGENETFVMRLTVAEGKTDNQYTLFVAGGTVLLLLFVISITTIIVIFLNRRRRRERRDLFTESWDTQKAPNNYRSPISTSQPTNQSMDDTREDIYVNYPTFSRRPKTRV
MCF7; [6]
  percentage of EdU-negative: 25.5 ± 2.7%
MCF7; protein concentration 0.225 µM
  percentage of EdU-negative: 23.8 ± 1.8%
hTERT-HMEC; [6]
  percentage of EdU-negative: 4.86 ± 0.72%
hTERT-HMEC; protein concentration 0.225 µM
  percentage of EdU-negative: 5.13 ± 0.67%

## MEACCLLQLPQRLLLLGAAALTATALETADLAELCGQTWQGDGLLLRSHAASRRFYFVAPDTDCGLWVQAAAPGDRIRFQFRFFLVYSLTPAPPALNTSSPAPADPCAPGSYLQFYEGPPGAPRPLGSPLCGLNIPVPVASSGPFLGLRLVTRGRQPRVDFVGEVTSFRLGPCGAYFRCQNGRCIPSSLVCDPWGMDNCGDGSDQGSWSPADCRGPSPVPSQTGSTDAHTSRSLTPSPALGSAGSLWIAAERSSPAGRDPTRQDAALEGSTE [Q5SZI1]
MCF7; [6]
  percentage of EdU-negative: 24.6 ± 1.8%
MCF7; protein concentration 0.225 µM
  percentage of EdU-negative: 25.3 ± 0.88%
hTERT-HMEC; [6]
  percentage of EdU-negative: 5.13 ± 0.83%
hTERT-HMEC; protein concentration 0.225 µM
  percentage of EdU-negative: 5.979 ± 0.048%

## MEALMARGALTGPLRALCLLGCLLSHAAAAPSPIIKFPGDVAPKTDKELAVQYLNTFYGCPKESCNLFVLKDTLKKMQKFFGLPQTGDLDQNTIETMRKPRCGNPDVANYNFFPRKPKWDKNQITYRIIGYTPDLDPETVDDAFARAFQVWSDVTPLRFSRIHDGEADIMINFGRWEHGDGYPFDGKDGLLAHAFAPGTGVGGDSHFDDDELWTLGEGQVVRVKYGNADGEYCKFPFLFNGKEYNSCTDTGRSDGFLWCSTTYNFEKDGKYGFCPHEALFTMGGNAEGQPCKFPFRFQGTSYDSCTTEGRTDGYRWCGTTEDYDRDKKYGFCPETAMSTVGGNSEGAPCVFPFTFLGNKYESCTSAGRSDGKMWCATTANYDDDRKWGFCPDQGYSLFLVAAHEFGHAMGLEHSQDPGALMAPIYTYTKNFRLSQDDIKGIQELYGASPDIDLGTGPTPTLGPVTPEICKQDIVFDGIAQIRGEIFFFKDRFIWRTVTPRDKPMGPLLVATFWPELPEKIDAVYEAPQEEKAVFFAGNEYWIYSASTLERGYPKPLTSLGLPPDVQRVDAAFNWSKNKKTYIFAGDKFWRYNEVKKKMDPGFPKLIADAWNAIPDNLDAVVDLQGGGHSYFFKGAYYLKLENQSLKSVKFGSIKSDWLGC
MCF7; [7]
  percentage of EdU-negative: 23.9 ± 0.91%
MCF7; [8]
  percentage of EdU-negative: 26.7 ± 1.5%
MCF7; [9]
  percentage of EdU-negative: 25.25 ± 0.19%
MCF7; [10]
  percentage of EdU-negative: 27.8 ± 0.84%
hTERT-HMEC; [7]
  percentage of EdU-negative: 4.84 ± 0.7%
hTERT-HMEC; [8]
  percentage of EdU-negative: 5.59 ± 1.1%
hTERT-HMEC; [9]
  percentage of EdU-negative: 9.87 ± 1.2%
hTERT-HMEC; [10]
  percentage of EdU-negative: 4.97 ± 0.54%

From the supplement of paper PMC11316812
